In one data set the test system is Aβ(8-15). The experiment in a line: SPR binding kinetics to immobilized Aβ(8-15). As to the method: Binding kinetics were determined by SPR using a Biacore™ X (GE Healthcare, UK). Synthetic Aβ peptides were dissolved in 10 mM NaAc, pH 4.0. The CM5 sensor chip surface (GE Healthcare, UK) was activated using N-ethyl-N′-3 […] carbodiimide (EDC) and N-hydroxysuccinimide (NHS) chemistry followed by 2-(2-pyridinyldithio)ethaneamine hydrochloride (PDEA), in order to introduce a reactive thiol group. Aβ was coupled via the C-terminal cysteine to the chip at a flow rate of 5 µl/min, and the remaining active groups were blocked by injecting cysteine. The immobilization procedure was performed according to manufacturer’s recommendation. All kinetic analyses were performed at a flow rate of 20 µl/min in PBS. Varying concentrations of scFv-IC16 (10 to 5000 nM) and IC16 (10 to 1000 nM) were injected. […] When required, the surface was regenerated by injecting 20 µl 50 mM glycine, pH 11.0. The data evaluation was performed using Biaevaluation Software 4.1.1. ScFv-IC16 data were fitted according to the Langmuir 1∶1 binding model, whereas IC16 data were fitted according to the bivalent binding model. Standard errors of equilibrium dissociation constants (KD) were calculated using standard errors of the corresponding association and dissociation rate constants.
For orientation: Surface plasmon resonance follows binding to a sensor surface in real time, without labels.

A further data set relates to Aβ(1-42). The experiment in a line: Thioflavin T (ThT) assay of Aβ(1-42) fibrilization. The note with it: for fibrilization of Aβ(1-42), ThT fluorescence: PBS, room temperature, value after 10 h, n = 5. In kind it is biochemical, human. The method, then:
7.5 µM Aβ(1-42) (stock solution of 190 µM in DMSO, freshly prepared before usage) were incubated with 10 µM ThT in PBS in absence or presence of different concentrations of scFv-IC16 (1.5, 3.75 and 7.5 µM) at room temperature for 24 h. In addition, scFv-IC16 (7.5 µM) without Aβ(1-42) was tested under the same conditions as the negative control. For all samples a reference value, generated with PBS and ThT only, was subtracted. […] The plate was covered by an adhesive film preventing evaporation of the sample buffer. Fluorescence recordings were performed every 30 min for 22 h (excitation wavelength 440 nm, emission wavelength 490 nm, Polarstar Optima, BMG, Ortenberg, Germany). The experiments were performed five-fold, and the average of the obtained values as well as the standard deviation was calculated.

The test system of a further data set is Aβ(1-42) oligomers. Put plainly: ELISA binding to Aβ(1-42) oligomers. The following applies: 250 ng/well, 10% N-biotinylated oligomers on streptavidin plate; compared with fibrils, p = 0.0014. Also on record: species or system human. As to the method:
1 mg of Aβ(1-42) or N-terminally/C-terminally biotinylated Aβ(1-42) was dissolved in 1 ml 1,1,1,3,3,3-hexafluorosiopropanol (HFIP) and incubated overnight at room temperature. Afterwards, Aβ(1-42) was mixed in the favored ratio with N-terminally/C-terminally biotinylated Aβ(1-42) and aliquoted. HFIP was evaporated using a SpeedVac (Concentrator 5301, Eppendorf, Germany) at room temperature for 30 min. To evaporate remaining HFIP, the sample was incubated overnight at room temperature with an open lid.
The preparation of Aβ(1-42) monomers and oligomers was carried out by size exclusion chromatography (SEC) as already described by Johansson et al with minor modifications. 250 µg of Aβ peptide was dissolved in 130 µl SEC buffer (50 mM NaPi, pH 7.4; 150 mM NaCl; 0.6% Tween-20) and briefly centrifuged (1 min, 16 100×g, room temperature) to remove insoluble fibrillar material. 100 µl of the supernatant was applied on a Superdex75 10/300 column (GE Healthcare, UK) connected to an Äkta purifier system (GE Healthcare, UK). The sample was eluted at a flow rate of 0.6 ml per min at room temperature and detected at wavelengths of 214, 250 and 278 nm. […] The concentration of the Aβ preparations was determined using the Micro BCA Protein Assay Kit (Thermo Scientific, Waltham, MA, USA). […] The samples were measured at a wavelength of 570 nm with a Polarstar Optima plate reader (BMG, Ortenberg, Germany). […]
(In general: ELISA stands for enzyme-linked immunosorbent assay.)

As for “scFv-IC16: single-chain variable fragment (VH-(Gly4Ser)3-VL, His6- and Myc-tag) derived from Aβ binding monoclonal antibody IC16, expressed in E. coli”, the “interaction with Aβ(8-15)” value in the data set with Aβ(8-15) is “No interaction”. In the data set on Aβ(1-42) (7.5 µM scFv-IC16 without Aβ(1-42), negative control, after 10 h), the “ThT fluorescence of scFv-IC16 only” value is listed as “did not show ThT fluorescence”. In addition, the “fibrilization of Aβ(1-42), ThT fluorescence” value with Aβ(1-42) (ratio 1:1: 7.5 µM Aβ(1-42) with 7.5 µM scFv-IC16, 10 µM ThT) is given as “completely inhibited”; in the data set on Aβ(1-42) (ratio 2:1: 7.5 µM Aβ(1-42) with 3.75 µM scFv-IC16, 10 µM ThT) it was “reduced the ThT fluorescence significantly”; in the data set with Aβ(1-42) (ratio 5:1: 7.5 µM Aβ(1-42) with 1.5 µM scFv-IC16, 10 µM ThT), “reduced the ThT fluorescence significantly”. Besides, the “ELISA binding to Aβ oligomers” value in the data set on Aβ(1-42) oligomers is given as “weaker”.

The values above are taken from paper PMC3608532, “Characterization of a Single-Chain Variable Fragment Recognizing a Linear Epitope of Aβ: A Biotechnical Tool for Studies on Alzheimer’s Disease?” (PLoS ONE, 2013).
